How the values were obtained:
[1] = target: HLA-A*31:01; assay: IEDB peptide-MHC binding, purified MHC/direct/fluorescence; filed as Kd, often an IC50 or EC50 that approximates it; ≥ and ≤ were set here for values at or beyond the usual limits of such assays
[2] = target: HLA-A*03:01; assay: as above
[3] = target: HLA-A*69:01; assay: as above
[4] = target: HLA-A*02:01; assay: as above
[5] = target: HLA-B*07:02; assay: as above
[6] = target: HLA-B*44:02; assay: as above
[7] = target: HLA-A*11:01; assay: as above
[8] = target: HLA-B*35:01; assay: as above
[9] = target: HLA-A*26:01; assay: as above
[10] = target: HLA-B*58:01; assay: as above
[11] = target: HLA-B*08:01; assay: as above
[12] = target: HLA-B*15:01; assay: as above
[13] = target: HLA-A*01:01; assay: as above
[14] = target: HLA-B*40:01; assay: as above
[15] = target: HLA-B*27:05; assay: as above
[16] = target: HLA-B*39:01; assay: as above; conditions: source organism: Yersinia enterocolitica subsp. enterocolitica 8081
[17] = target: HLA-C*03:03; assay: as above
[18] = target: HLA-B*15:09; assay: as above
[19] = target: HLA-A*02:01; assay: IEDB peptide-MHC binding, purified MHC/competitive/radioactivity; ≥ and ≤ were set here for values at or beyond the usual limits of such assays
[20] = target: HLA-C*06:02; assay: IEDB peptide-MHC binding, purified MHC/direct/fluorescence; filed as Kd, often an IC50 or EC50 that approximates it; ≥ and ≤ were set here for values at or beyond the usual limits of such assays; conditions: source organism: Orthohantavirus sinnombreense
[21] = target: HLA-B*18:01; assay: as above
[22] = target: HLA-A*02:19; assay: as above; conditions: source organism: Limestone Canyon virus
[23] = target: HLA-B*57:01; assay: as above
[24] = target: HLA-B*48:01; assay: as above
[25] = target: HLA-B*46:01; assay: as above
[26] = target: HLA-B*15:17; assay: IEDB peptide-MHC binding, purified MHC/competitive/fluorescence; filed as Kd, often an IC50 or EC50 that approximates it; ≥ and ≤ were set here for values at or beyond the usual limits of such assays; conditions: source organism: Orthohantavirus sinnombreense
[27] = target: HLA-A*26:01; assay: as above; conditions: source organism: Orthohantavirus sinnombreense
[28] = target: HLA-A*24:02; assay: IEDB peptide-MHC binding, purified MHC/direct/fluorescence; filed as Kd, often an IC50 or EC50 that approximates it; ≥ and ≤ were set here for values at or beyond the usual limits of such assays
[29] = target: HLA-B*15:17; assay: as above; conditions: source organism: Salmonella enterica
[30] = target: HLA-B*08:02; assay: as above; conditions: source organism: Salmonella enterica subsp. enterica serovar Typhimurium str. LT2
[31] = target: HLA-B*08:03; assay: as above; conditions: source organism: Salmonella enterica subsp. enterica serovar Typhimurium str. LT2
[32] = target: HLA-A*68:02; assay: IEDB peptide-MHC binding, purified MHC/competitive/fluorescence; filed as Kd, often an IC50 or EC50 that approximates it; ≥ and ≤ were set here for values at or beyond the usual limits of such assays; conditions: source organism: Salmonella enterica subsp. enterica serovar Typhi
[33] = target: HLA-B*53:01; assay: IEDB peptide-MHC binding, purified MHC/competitive/fluorescence; ≥ and ≤ were set here for values at or beyond the usual limits of such assays; conditions: source organism: Human herpesvirus 4 type 2
[34] = target: HLA-C*12:03; assay: IEDB peptide-MHC binding, purified MHC/direct/fluorescence; filed as Kd, often an IC50 or EC50 that approximates it; ≥ and ≤ were set here for values at or beyond the usual limits of such assays
[35] = target: HLA-C*15:02; assay: as above; conditions: source organism: Mammarenavirus choriomeningitidis
[36] = target: HLA-A*29:02; assay: IEDB peptide-MHC binding, purified MHC/competitive/radioactivity; filed as Kd, often an IC50 or EC50 that approximates it; ≥ and ≤ were set here for values at or beyond the usual limits of such assays; conditions: source organism: Lassa virus Josiah
[37] = target: HLA-A*23:01; assay: as above; conditions: source organism: Lassa virus Josiah
[38] = target: HLA-A*24:02; assay: as above; conditions: source organism: Lassa virus Josiah
[39] = source organism: Escherichia coli O157:H7
[40] = source organism: Escherichia coli O6
[41] = source organism: Hepatitis B virus
[42] = source organism: Orthohantavirus sinnombreense
[43] = source organism: Vibrio cholerae
[44] = source organism: Vibrio cholerae RC385
[45] = source organism: Influenza A virus (A/Puerto Rico/8/34/Mount Sinai(H1N1))
[46] = source organism: Influenza A virus (A/Turkey/MO/24093/99(H1N2))
[47] = source organism: Influenza A virus(A/swine/Henan/5/2004(H9N2))
[48] = source organism: Salmonella enterica
[49] = source organism: Mammarenavirus lassaense
[50] = source organism: Influenza A virus (A/Wisconsin/4755/1994(H1N1))
[51] = source organism: Mycobacterium tuberculosis variant bovis BCG str. Pasteur 1173P2

AHGWSTFYL
3.15 µM: Kd [13, 40]
≥ 20 µM: Kd [1, 39] | Kd [2, 39] | Kd [4, 39] | Kd [5, 39] | Kd [6, 39] | Kd [7, 39] | Kd [9, 39] | Kd [10, 39] | Kd [11, 39] | Kd [12, 39] | Kd [14, 39] | Kd [15, 39]
2.1 µM: Kd [8, 40]
1.54 µM: Kd [3, 40]

FHYQDPFPL
≤ 0.001 µM: Kd [16] | Kd ([18]; source organism: Yersinia enterocolitica subsp. enterocolitica 8081)
1.39 µM: Kd ([17]; source organism: Yersinia pestis Nepal516)

FLPNDFFPSA
0.0021 µM: IC50 [19, 41]

FPFWGCFVS
0.002 µM: Kd ([8]; source organism: Rickettsia prowazekii)

FRYKSRCYV
≥ 20 µM: Kd [2, 42] | Kd [5, 42] | Kd [6, 42] | Kd [21, 42] | Kd [22] | Kd [10, 42] | Kd [23, 42] | Kd [11, 42] | Kd [24, 42] | Kd [12, 42] | Kd [13, 42] | Kd [14, 42] | Kd [25, 42] | Kd [26] | Kd [27]
0.007 µM: Kd [20]

GLRWHVRAF
≥ 20 µM: Kd [1, 43] | Kd [2, 43] | Kd [3, 43] | Kd [4, 43] | Kd [6, 43] | Kd [7, 43] | Kd [9, 44] | Kd [10, 43] | Kd [13, 43] | Kd [28, 43] | Kd [14, 43] | Kd [18, 44] | Kd [15, 43]
0.0794 µM: Kd [12, 43]
0.407 µM: Kd [5, 43]

GMQIRGFVY
≥ 20 µM: Kd [3, 46] | Kd [4, 46] | Kd [5, 46] | Kd [6, 46] | Kd [9, 47] | Kd [11, 46] | Kd [13, 46] | Kd [28, 46] | Kd [14, 46] | Kd [18, 47] | Kd [15, 46]
4.75 µM: Kd [10, 46]
1.13 µM: Kd [2, 45]
0.26 µM: Kd [12, 45]

ILSTLPETTV
0.233 µM: IC50 [19, 41]

NVHRSQFAQ
≥ 20 µM: Kd [29] | Kd [1, 48] | Kd [2, 48] | Kd [4, 48] | Kd [5, 48] | Kd [30] | Kd [21, 48] | Kd [7, 48] | Kd [31] | Kd [10, 48] | Kd [23, 48] | Kd ([11]; source organism: Salmonella enterica subsp. enterica serovar Typhimurium str. LT2) | Kd [24, 48] | Kd [12, 48] | Kd [13, 48] | Kd [14, 48] | Kd [15, 48] | Kd [25, 48] | Kd [32]

QAYAAPQLF
0.0707 µM: IC50 [33]

QLLWFHISCL
0.393 µM: IC50 [19, 41]

RVASPTSGV
0.731 µM: IC50 ([19]; source organism: Homo sapiens)

VATVNAVTV
0.018 µM: Kd ([34]; source organism: Leishmania major strain Friedlin)

YLISIFLHL
0.802 µM: Kd [3, 49]
≥ 67.7 µM: Kd [38]
0.0809 µM: Kd [4, 49]
0.0997 µM: Kd [36]
≥ 20 µM: Kd [35]
0.000422 µM: Kd [37]

YRYTYRCHR
0.587 µM: Kd [10, 50]
≥ 20 µM: Kd [2, 50] | Kd [3, 50] | Kd [4, 50] | Kd [5, 50] | Kd [6, 50] | Kd [7, 50] | Kd [11, 50] | Kd [12, 50] | Kd [13, 50] | Kd [28, 50] | Kd [14, 50] | Kd ([18]; source organism: Influenza A virus(A/swine/Shandong/fZC/2003(H9N2))) | Kd [25, 50]
0.267 µM: Kd [15, 45]

YVIEPAAGL
≤ 0.001 µM: Kd [17, 51]
0.023 µM: Kd [34, 51]

Source: the Immune Epitope Database (IEDB)
